Results published in US20240068004A1 (MBRACE THERAPEUTICS, published 2024).

Legend:
Assay in all cases: alanine scan, high-throughput flow cytometry
[1] = target: T1, GRP78 alanine scanning variant R279A (human, UniProt P11021 19-654)
T1 construct: Member of the alanine scanning library of GRP78
Method: (§1) To characterize the binding properties of the antibodies described in Example 1 for GRP78, epitope mapping analysis was carried out by alanine scanning mutagenesis. An alanine scanning library of GRP78 was constructed. Each anti-GRP78 antibody was then screened for binding to each individual GRP78 variant, allowing identification of the target protein residues involved in antibody binding.
(§2) Binding of each test antibody to each GRP78 variant in the alanine scanning library was determined by high-throughput flow cytometry under high stringency conditions (e.g., increased pH, increased salinity, increased temperature and/or increased wash time). Also included in the experiment was a commercially-available monoclonal antibody, 1H11-1H7, which was verified to bind to the wildtype (WT) GRP78 on cells and thus determined to be a suitable positive control under these conditions (Thermo Fisher Scientific, Waltham, MA). Antibody binding to each of the GRP78 variants as measured by the fluorescence signal (raw fluorescence data minus the background), was normalized to its binding to the WT GRP78. For each GRP78 variant, such normalized binding to the test antibodies was plotted relative to that to the control antibody.

[2] = target: T2, GRP78 alanine scanning variant R261A (human, UniProt P11021 19-654)
T2 construct: Member of the alanine scanning library of GRP78
Method: as §1, §2

[3] = target: T3, GRP78 alanine scanning variant E329A (human, UniProt P11021 19-654)
T3 construct: Member of the alanine scanning library of GRP78
Method: as §1, §2

[4] = target: T4, GRP78 alanine scanning variant H265A (human, UniProt P11021 19-654)
T4 construct: Member of the alanine scanning library of GRP78
Method: as §1, §2

T2 sequence (P11021 19-654 R261A limits assumed): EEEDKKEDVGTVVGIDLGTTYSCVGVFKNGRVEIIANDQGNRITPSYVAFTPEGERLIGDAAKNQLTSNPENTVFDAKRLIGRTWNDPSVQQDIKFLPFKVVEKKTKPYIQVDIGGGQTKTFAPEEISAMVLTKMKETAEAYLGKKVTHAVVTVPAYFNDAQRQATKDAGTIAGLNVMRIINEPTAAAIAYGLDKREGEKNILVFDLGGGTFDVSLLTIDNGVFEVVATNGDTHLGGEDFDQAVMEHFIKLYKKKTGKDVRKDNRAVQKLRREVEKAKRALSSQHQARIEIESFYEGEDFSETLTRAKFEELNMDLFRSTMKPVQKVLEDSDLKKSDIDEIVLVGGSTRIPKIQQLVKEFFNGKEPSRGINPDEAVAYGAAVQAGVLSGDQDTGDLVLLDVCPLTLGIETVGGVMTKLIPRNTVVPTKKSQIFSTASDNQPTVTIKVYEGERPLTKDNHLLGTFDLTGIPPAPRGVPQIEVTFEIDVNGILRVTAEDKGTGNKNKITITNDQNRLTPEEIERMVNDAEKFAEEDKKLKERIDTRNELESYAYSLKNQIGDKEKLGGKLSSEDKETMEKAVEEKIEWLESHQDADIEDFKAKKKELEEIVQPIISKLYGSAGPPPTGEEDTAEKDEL
T3 sequence (P11021 19-654 E329A limits assumed): as the sequence (P11021 19-654 R261A limits assumed) above, with A243R, E311A counted along it
T4 sequence (P11021 19-654 H265A limits assumed): as the sequence (P11021 19-654 R261A limits assumed) above, with A243R, H247A counted along it
T1 sequence (P11021 19-654 R279A limits assumed): as the sequence (P11021 19-654 R261A limits assumed) above, with A243R, R261A counted along it

Binder | % binding normalized to WT GRP78 [1] [%] | % binding normalized to WT GRP78 [2] [%] | % binding normalized to WT GRP78 [3] [%] | % binding normalized to WT GRP78 [4] [%]
anti-GRP78 antibody clone F6 (antibody, IgG1, V domains shown, Fully human mAb formatted as full-length IgG1; also called F6 mAb) VH: QVQLQQSGPGLVKPPQTLSLTCAISGDSVSSNSAAWNWIRQSPSRGLEWLGRTYYRSKWYNDYAVSVKSRITINPDTSKNQFSLQLNSVTPEDTAVYYCARDPYYYDSSGYYYFDAFDIWGQGTMVTVSS VL: SYELTQPHSVSVAPGQTARITCGGDNIGSKSVHWYQQRPGQAPVLVVYDDSDRPSGIPERFSGSNSENTATLTISGVEAGDEADYYCQVWDSTSHHVVFGGGTKLTVL | < 20 | < 20 | – | –
anti-GRP78 antibody clone B4 (antibody, IgG1, V domains shown, Fully human mAb formatted as full-length IgG1; also called B4 mAb) VH: QVRLQESGPGLVKPSQTLSLTCTVSGGSISSGGYYWSWIRQHPGKGLEWIGYIYYSGSTYYNPSLESRVTISVDTSKNQFSLKLSSVTAADTAVYYCARYSSIDAFEIWGQGTMVTVSS VL: SYVLTQPPSVSVAPGKTATITCGGDDIGSKSVHWYQQKPGQAPVLVVYDDGDRPSGIPERFSGSNSGNTATLAISRVEAGDEADYYCQVWDSSSDQYVFGSGTKLTVL | – | < 20 | < 20 | < 20
